Laboratory results from patent US20250277029A1 (Amgen, published 2025).

B1: LIBC523844-1 (antibody, V domains shown)
VH: QVQLQESGPGLVKPSQTLSLTCTVSGGSIRRGGDYWSWIRQHPGKGLEWIGHVYYTGSTKYNPSFKDRATISVNTYKNQFSLKLSSVTAADTAVYYCARDYDILTGYSYYYYGMDVWGQGTTVTVSS
VL: DIVMTQSPLSLPVTPGEPASISCRSSQSLLSSSGANYVDWYLQKPGQSPQLLIYQGSNRASGVPDRFSGSGSGTDFTLKISRVEAEDVGVYYCRQARALPRTFGQGTKVEIKR
B2: LIBC523748-1 (antibody, V domains shown)
VH: QVQLQESGPGLVKPSQTLSLTCTVSGGSIRRGGDYWSWIRQHPGKGLEWIGHVYYTGSTKYNPSFEGRATISVKTYKNQFSLKLSSVTAADTAVYYCARDYDILTGYSYYYYGMDVWGQGTTVTVSS
VL: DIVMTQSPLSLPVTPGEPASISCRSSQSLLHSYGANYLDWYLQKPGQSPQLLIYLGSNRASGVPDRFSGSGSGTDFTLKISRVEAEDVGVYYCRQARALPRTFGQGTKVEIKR
B3: LIBC523868-1 (antibody, V domains shown)
VH: QVQLQESGPGLVKPSQTLSLTCTVSGGSIRRGGDYWSWIRQHPGKGLEWIGHVYYEGSTAYNPSFEDRATISVNTYKNQFSLKLSSVTAADTAVYYCARDYDILTGYSYYYYGMDVWGQGTTVTVSS
VL: DIVMTQSPLSLPVTPGEPASISCRSSQSLLTSYGINYVDWYLQKPGQSPQLLIYLGSNRASGVPDRFSGSGSGTDFTLKISRVEAEDVGVYYCMQARQIPRTFGQGTKVEIKR
B4: LIBC523603-1 (antibody, V domains shown)
VH: QVQLQESGPGLVKPSQTLSLTCTVSGGSIRRGGDYWAWIRQHPGKGLEWIGHVYQSGQTAYNPNFENRATISVNTYKNQFSLKLSSVTAADTAVYYCARDYDAVSGYSYYYYGMDVWGQGTTVTVSS
VL: DIVMTQSPLSLPVTPGEPASISCRSSQSLLSSYGNNYVDWYLQKPGQSPQLLIYQGSNRASGVPDRFSGSGSGTDFTLKISRVEAEDVGVYYCRQAVGLPRTFGQGTKVEIKR
B5: LIBC523760-1 (antibody, V domains shown)
VH: QVQLQESGPGLVKPSQTLSLTCTVSGGSIRRGGDYWSWIRQHPGKGLEWIGHVYQTGSTKYNPKFKGRATISVNTYKNQFSLKLSSVTAADTAVYYCARDYDILTGYSYYYYGMDVWGQGTTVTVSS
VL: DIVMTQSPLSLPVTPGEPASISCRSSQSLLTSSGANYVDWYLQKPGQSPQLLIYLGSNRASGVPDRFSGSGSGTDFTLKISRVEAEDVGVYYCRQAVGTPRTFGQGTKVEIKR
B6: LIBC523857-1 (antibody, V domains shown)
VH: QVQLQESGPGLVKPSQTLSLTCTVSGGSIRRGGDYWSWIRQHPGKGLEWIGHIYQTGQTAYNPRLEGRATISVNTYKNQFSLKLSSVTAADTAVYYCARDYDILTGYSYYYYGMDVWGQGTTVTVSS
VL: DIVMTQSPLSLPVTPGEPASISCRSSQSLLSSTGANYLDWYLQKPGQSPQLLIYLGSNRASGVPDRFSGSGSGTDFTLKISRVEAEDVGVYYCRQAVELPRTFGQGTKVEIKR
B7: LIBC523596-1 (antibody, V domains shown)
VH: QVQLQESGPGLVKPSQTLSLTCTVSGGSIRRGGDYWSWIRQHPGKGLEWIGHVYQSGQTAYNPNFEDRATISVNTYKNQFSLKLSSVTAADTAVYYCAREYDVVSGYSYYYYGMDVWGQGTTVTVSS
VL: DIVMTQSPLSLPVTPGEPASISCRSSQSLLTSSGYNYVDWYLQKPGQSPQLLIYQGSNRASGVPDRFSGSGSGTDFTLKISRVEAEDVGVYYCMQAVKIPRTFGQGTKVEIKR
B8: LIBC523969-1 (antibody, V domains shown)
VH: QVQLQESGPGLVKPSQTLSLTCTVSGGSIRRGGDYWSWIRQHPGKGLEWIGHIYQTGQTKYNPNLKGRATISVNTYKNQFSLKLSSVTAADTAVYYCARDYDILTGYSYYYYGMDVWGQGTTVTVSS
VL: DIVMTQSPLSLPVTPGEPASISCRSSQSLLSSTGANYLDWYLQKPGQSPQLLIYQGSNRASGVPDRFSGSGSGTDFTLKISRVEAEDVGVYYCRQAVGLPRTFGQGTKVEIKR
B9: LIBC523670-1 (antibody, V domains shown)
VH: QVQLQESGPGLVKPSQTLSLTCTVSGGSIRRGGDYWAWIRQHPGKGLEWIGHVYQTGQTAYNPNLESRATISVNTYKNQFSLKLSSVTAADTAVYYCARNYDVLSGYSYYYYGMDVWGQGTTVTVSS
VL: DIVMTQSPLSLPVTPGEPASISCRSSQSLLTSYGANYLDWYLQKPGQSPQLLIYQGSNRASGVPDRFSGSGSGTDFTLKISRVEAEDVGVYYCMQALQIPRTFGQGTKVEIKR
B10: LIBC523813-1 (antibody, V domains shown)
VH: QVQLQESGPGLVKPSQTLSLTCTVSGGSIRRGGDYWSWIRQHPGKGLEWIGHVYYTGQTAYNPKFKDRATISVKTYKNQFSLKLSSVTAADTAVYYCARDYDILTGYSYYYYGMDVWGQGTTVTVSS
VL: DIVMTQSPLSLPVTPGEPASISCRSSQSLLSSSGANYVDWYLQKPGQSPQLLIYLGSNRASGVPDRFSGSGSGTDFTLKISRVEAEDVGVYYCMQARGIPRTFGQGTKVEIKR
B11: LIBC523862-1 (antibody, V domains shown)
VH: QVQLQESGPGLVKPSQTLSLTCTVSGGSIRRGGDYWSWIRQHPGKGLEWIGHIYQTGSTAYNPSLKGRATISVNTYKNQFSLKLSSVTAADTAVYYCARDYDILTGYSYYYYGMDVWGQGTTVTVSS
VL: DIVMTQSPLSLPVTPGEPASISCRSSQSLLHSTGANYVDWYLQKPGQSPQLLIYLGSNRASGVPDRFSGSGSGTDFTLKISRVEAEDVGVYYCRQAIALPRTFGQGTKVEIKR
B12: LIBC527869-1 (antibody, V domains shown)
VH: QVQLQESGPGLVKPSQTLSLTCTVSGGNIRRGGDYWAWIRQHPGKGLEWIGHIYHTGKTNYNPSFKGRATISVKTYKNQFSLKLSSVTAADTAVYYCARNYDTLSGNSYYYYGMDVWGQGTTVTVSS
VL: DIQLTQSPSTLSASVGDRVTITCRASQSISNYLNWYQQKPGKAPKLLIYAASSLHSGVPSRFSGSGSGTDFTLTISSLQPEDFASYYCQQYQSYPLTFGQGTKVEIKR
B13: LIBC527984-1 (antibody, V domains shown)
VH: QVQLQESGPGLVKPSQTLSLTCTVSGGSIRRGGDYWSWIRQHPGKGLEWIGHIYQTGKTNYNPNFKSRATISVNTYKNQFSLKLSSVTAADTAVYYCARDYDILTGYSYYYYGMDVWGQGTTVTVSS
VL: DIQMTQSPSTLSASVGDRVTITCRASQSISNYLNWYQQKPGKAPKLLIYAASSLHSGVPSRFSGSGSGTDFTLTISSLQPEDFASYYCQQYQSYPLTFGQGTKVEIKR
B14: LIBC527879-1 (antibody, V domains shown)
VH: QVQLQESGPGLVKPSQTLSLTCTVSGGSIRRGGDYWGWIRQHPGKGLEWIGHIYQSGSTNYNPKLKSRATISVDTYKNQFSLKLSSVTAADTAVYYCARDYDIFTGYSYYYYGMDVWGQGTTVTVSS
VL: DIQLTQSPSSLSASVGDRVTITCRASQSIISYLNWYQQKPGKAPKLLIYAASSLRSGVPSRFSGSGSGTDFTLTISSLQPEDFATYYCQQYSNYPLTFGGGTRVEIKR

Target: human cannabinoid receptor 1 (huCB1), full length, expressed on cells (human, UniProt P21554 1-472)
Sequence (P21554 whole entry): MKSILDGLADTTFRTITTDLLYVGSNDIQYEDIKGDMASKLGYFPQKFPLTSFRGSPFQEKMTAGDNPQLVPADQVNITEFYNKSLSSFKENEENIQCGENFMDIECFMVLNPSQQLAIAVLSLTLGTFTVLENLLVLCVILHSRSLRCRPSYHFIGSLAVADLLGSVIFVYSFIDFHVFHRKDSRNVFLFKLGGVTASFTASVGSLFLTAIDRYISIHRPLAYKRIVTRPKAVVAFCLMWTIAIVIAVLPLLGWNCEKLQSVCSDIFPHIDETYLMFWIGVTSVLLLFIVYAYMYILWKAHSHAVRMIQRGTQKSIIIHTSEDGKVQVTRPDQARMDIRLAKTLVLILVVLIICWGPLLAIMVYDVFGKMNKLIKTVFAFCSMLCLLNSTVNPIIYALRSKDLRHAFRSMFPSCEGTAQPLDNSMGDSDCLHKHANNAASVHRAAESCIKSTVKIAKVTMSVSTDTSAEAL
Assay: cell-based or functional assay

| Binder | Mean IC50 (nM), cAMP antagonist assay [nM] | Mean IC50, -fold vs Rimo [fold vs Rimonabant] | n = 1 IC50 (nM), cAMP antagonist assay [nM] | n = 1 IC50, -fold vs Rimo [fold vs Rimonabant] | n = 2 IC50 (nM), cAMP antagonist assay [nM] | n = 2 IC50, -fold vs Rimo [fold vs Rimonabant] |
| --- | --- | --- | --- | --- | --- | --- |
| B1 | 3.83 | 1.28 | 6.2 | 1.47 | 1.46 | 0.82 |
| B2 | 7 | 2.33 | 9.57 | 2.27 | 4.43 | 2.48 |
| B3 | 7.59 | 2.53 | 11.9 | 2.81 | 3.32 | 1.86 |
| B4 | 4.72 | 1.57 | 7.29 | 1.73 | 2.16 | 1.2 |
| B5 | 4.28 | 1.43 | 6.12 | 1.45 | 2.44 | 1.36 |
| B6 | 7.94 | 2.65 | 13.4 | 3.18 | 2.48 | 1.39 |
| B7 | 8.99 | – | – | – | 4 | – |
| B8 | 3.86 | 1.29 | 6.45 | 1.53 | 1.26 | 0.7 |
| B9 | 6.12 | 2.04 | 8.72 | 2.07 | 3.52 | 1.97 |
| B10 | 5.95 | 1.98 | 8.96 | 2.13 | 2.94 | 1.64 |
| B11 | 7.31 | 2.44 | 11.2 | 2.66 | 3.42 | 1.91 |
| B12 | 47 | 15.7 | 57.8 | 13.7 | 36.2 | 20.2 |
| B13 | 4.25 | 1.42 | 7.24 | 1.72 | 1.27 | 0.71 |
| B14 | 3.95 | 1.32 | 6.12 | 1.45 | 1.78 | 0.99 |
